Target: H1N1 A/PR/8/1934 (Cambridge strain) neuraminidase, recombinant soluble tetramer with tetrabrachion domain (Staphylothermus marinus | influenza A virus H1N1 A/PR/8/1934 (Cambridge strain))
Assay: cross-linking

H1N1 A/PR/8/1934 (Cambridge strain) neuraminidase, recombinant soluble tetramer with tetrabrachion domain (enzyme)
stoichiometry N: 4

Reference: publication PMC12419796
